Laboratory results: patent US20180094062A1 (Hoffmann-La Roche, published 2018)

Columns and labels:
[1] = target: T1, TtSlyDcas; assay: ELISA, antigen coated, hybridoma supernatant
T1 construct: negative control scaffold without the HER3 β-hairpin
T1 chain: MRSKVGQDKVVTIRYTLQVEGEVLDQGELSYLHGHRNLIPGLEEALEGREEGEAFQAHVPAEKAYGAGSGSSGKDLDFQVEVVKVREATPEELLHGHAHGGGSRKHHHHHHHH
Description: (§1) For the ELISA screening an antigen down format was used. […] Hybridoma Supernatant was added to the plates and incubated for 1 h at room temperature. Bound antibody was detected with a HRP-labeled F(ab′)₂ goat anti-mouse Fcγ (Dianova) and ABTS (Roche) was used as a HRP-substrate.
(§2) As negative controls the scaffold proteins TtSlyDcas and TgSlyDΔIF were used.

[2] = target: human HER2 Extracellular Domain (HER2 ECD) (human, UniProt P04626 23-652); assay: ELISA, antigen coated, hybridoma supernatant
Description: as §1, §2

[3] = target: T2, human recombinant HER3 Extracellular Domain (HER3 ECD) (human, UniProt P21860 20-643); assay: ELISA, antigen coated, hybridoma supernatant
T2 construct: 68 kDa; also called human-Her3-ECD
Description: as §1, §2

[4] = target: T3, TgSlyDser-Her3; assay: ELISA, antigen coated, hybridoma supernatant
T3 chain: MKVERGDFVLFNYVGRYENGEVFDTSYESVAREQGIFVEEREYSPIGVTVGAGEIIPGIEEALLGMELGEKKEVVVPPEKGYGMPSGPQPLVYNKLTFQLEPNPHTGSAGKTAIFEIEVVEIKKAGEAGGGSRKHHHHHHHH
Description: as §1, §2

[5] = target: T4, TtSlyDcys-Her3; assay: ELISA, antigen coated, hybridoma supernatant
T4 chain: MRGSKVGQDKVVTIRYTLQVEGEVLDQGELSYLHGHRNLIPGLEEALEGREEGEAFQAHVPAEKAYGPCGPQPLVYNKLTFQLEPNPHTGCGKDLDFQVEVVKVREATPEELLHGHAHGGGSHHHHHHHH
Description: as §1, §2

[6] = target: T5, human recombinant HER4 Extracellular Domain (HER4 ECD) (human, UniProt Q15303 26-651); assay: ELISA, antigen coated, hybridoma supernatant
T5 sequence: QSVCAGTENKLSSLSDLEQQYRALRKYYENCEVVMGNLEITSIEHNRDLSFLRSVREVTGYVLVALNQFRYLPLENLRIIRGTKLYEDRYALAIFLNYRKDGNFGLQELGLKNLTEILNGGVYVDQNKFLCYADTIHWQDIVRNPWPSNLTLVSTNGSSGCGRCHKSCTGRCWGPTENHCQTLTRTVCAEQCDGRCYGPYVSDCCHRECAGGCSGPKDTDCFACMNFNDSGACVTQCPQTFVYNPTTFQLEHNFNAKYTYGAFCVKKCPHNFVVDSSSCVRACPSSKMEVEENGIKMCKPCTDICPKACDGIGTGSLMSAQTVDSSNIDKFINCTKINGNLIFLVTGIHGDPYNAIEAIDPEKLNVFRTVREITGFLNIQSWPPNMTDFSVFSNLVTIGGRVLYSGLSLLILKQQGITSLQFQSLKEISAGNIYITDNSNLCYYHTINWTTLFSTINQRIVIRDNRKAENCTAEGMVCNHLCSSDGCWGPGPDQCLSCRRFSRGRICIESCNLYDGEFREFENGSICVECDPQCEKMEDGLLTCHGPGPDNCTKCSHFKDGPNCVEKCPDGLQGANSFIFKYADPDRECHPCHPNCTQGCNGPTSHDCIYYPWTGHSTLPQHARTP
Description: as §1, §2

[7] = target: T6, TgSlyDΔIF; assay: ELISA, antigen coated, hybridoma supernatant
T6 construct: negative control scaffold without insert (Thermococcus gammatolerans SlyD); also called TgSlyDAIF
T6 chain: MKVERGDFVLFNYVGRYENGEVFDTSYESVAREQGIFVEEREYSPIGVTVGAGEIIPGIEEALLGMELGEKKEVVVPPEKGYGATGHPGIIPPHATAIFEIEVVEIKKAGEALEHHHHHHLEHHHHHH
Description: as §1, §2

[8] = target: T7, human HER1 Extracellular Domain (HER1 ECD) (human, UniProt P00533 25-645); assay: ELISA, antigen coated, hybridoma supernatant
T7 construct: also called EGFR ECD
Description: as §1, §2

[9] = target: T8, TgSlyDcys-Her3; assay: ELISA, antigen coated, hybridoma supernatant
T8 chain: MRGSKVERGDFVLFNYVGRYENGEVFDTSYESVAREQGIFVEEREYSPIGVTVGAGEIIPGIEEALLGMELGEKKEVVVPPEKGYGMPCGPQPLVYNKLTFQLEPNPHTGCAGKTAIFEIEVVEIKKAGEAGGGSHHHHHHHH
Description: as §1, §2

[10] = target: T9, TtSlyDcas-Her3; assay: ELISA, antigen coated, hybridoma supernatant
T9 chain: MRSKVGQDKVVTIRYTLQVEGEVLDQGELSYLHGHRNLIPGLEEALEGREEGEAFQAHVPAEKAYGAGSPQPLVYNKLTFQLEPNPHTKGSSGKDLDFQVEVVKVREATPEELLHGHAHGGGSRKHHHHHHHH
Description: as §1, §2

[11] = target: T10, HER2, full length, on cells (transfected HEK293, MCF7) (human, UniProt P04626 23-1255); assay: IHC on HEK293 cells transiently transfected with full length HER2
Description: (§3) All selected clones were tested for reactivity and specificity in IHC. […] After an additional fixation in formalin overnight the Agarose blocks were embedded in paraffin. Untransfected HEK293 cells were used as negative controls and treated accordingly to the transfected cells. After paraffin embedding 3 μm thin sections were prepared using a microtome. The sections were mounted on glass microscopy slides and dried for 2 h. All further steps of the immunohistochemical staining procedure were carried out using a Ventana Benchmark XT. The slides were dewaxed and antigen retrieval was performed by applying heat for 1 hour. For antigen retrieval the Ventana buffer CC1 was used. The antibodies were used at a concentration of 1 μg/ml. For the detection of bound antibody the Ventana UltraView detection kit was used.

[12] = target: T11, HER4, full length, on transfected HEK293 cells (human, UniProt Q15303 26-1308); assay: IHC on HEK293 cells transiently transfected with full length HER4
Description: as §3

[13] = target: T12, HER1, full length, on transfected HEK293 cells (human, UniProt P00533 25-1210); assay: IHC on HEK293 cells transiently transfected with full length HER1
T12 construct: HEK293 transiently transfected with a plasmid coding for full length HER1; also called EGFR
Description: as §3

[14] = target: T13, HER1 (EGFR) ECD peptide hairpin, overlapping immobilized 15-mer peptides (human, UniProt P00533 265-283, limits assumed); assay: CelluSpots array of overlapping 15-mer peptides
T13 construct: domain: peptide hairpin (β-hairpin); CelluSpots 15-mer library; cysteines replaced by serines; also called hairpin motive in EGFR
T13 peptide (looked up): PPLMLYNPTTYQMDVNPEG

[15] = target: T14, HER2 ECD peptide hairpin, overlapping immobilized 15-mer peptides (human, UniProt P04626 269-287, limits assumed); assay: CelluSpots array of overlapping 15-mer peptides
T14 construct: domain: peptide hairpin (β-hairpin); CelluSpots 15-mer library; cysteines replaced by serines; also called hairpin motive in the HER2 ECD
T14 peptide (looked up): PALVTYNTDTFESMPNPEG

[16] = target: T15, HER3 ECD-HRG complex (Heregulin-activated Her-3 ECD) (human, UniProt P21860 20-643); assay: SPR, 90 nM Heregulin*Her-3 ECD complex on captured antibody
T15 construct: receptor-ligand complex made by preincubating HER3 ECD with a five-fold molar excess of Heregulin; also called Heregulin/Her-3 ECD; Heregulin-complexed Her-3 ECD

[17] = target: T16, SBP-tagged HER3-ECD (human, UniProt P21860 20-643); assay: time-resolved fluorescence, 10 nM Eu-labelled Heregulin-beta on plate-bound SBP-tagged HER3-ECD
T16 construct: not shown: SBP tag
Description: On the next day the wells were washed three times with washing buffer (PBS+0.05% Tween-20) and blocked with PBS containing 1% BSA for one hour. After another three washes with washing buffer, 40 μl antibody solution (in Delfia Binding Buffer) was added to each well as a 2× stock of the desired final concentrations (10⁻³ to 10³ nM, alternatively 10⁻⁴ to 10² nM). Immediately […] of 20 nM Europium-labeled Heregulin-beta (PeproTech, Cat. #100-03) was added to achieve a final concentration of 10 nM. The plates were incubated on a shaker at room temperature for two hours. Following three washes with Delfia Wash Buffer, Delfia Enhancement Solution was added and incubated on a shaker for 15 minutes (light protected). Finally, the plates were measured in a Tecan Infinite F200 reader using a time-resolved fluorescence measurement protocol.

[18] = target: T2, human recombinant HER3 Extracellular …; assay: SPR Biacore T200, antibody captured, HER3-ECD as analyte, 37 C
[19] = target: T11, HER4, full length, on transfected …; assay: IHC on fixed transfected HEK293 cells
Description: as §3

[20] = target: T12, HER1, full length, on transfected …; assay: IHC on fixed transfected HEK293 cells
Description: as §3

[21] = target: T10, HER2, full length, on cells …; assay: IHC on fixed transfected HEK293 cells
Description: as §3

B1: anti-HER3 antibody M-17-07 (antibody, V domains shown)
VH: EVQLQQSGTVLARPGASVKMSCKASGYSFTSYWIHWVKQRPGQGLEWIGAIYPGNSDTTYNQKFKGKAKLTAVTSASTAYMELSSLTNEDSAVYYCARTGVWTSYYFDYWGQGTTLTVSS
VL: DIQMTQSPASLSASVGETVTITCRASENIYSNLAWYQQKQGKSPQLLVYAATNLADGVPSRFSGSGSGTQFSLRINSLQPEDFGSYYCQHFYGTPFTFGTGTKLEIK
notes: mouse hybridoma clone
[1]
  OD 405 nm: 0.022 OD
[2]
  OD 405 nm: 0.03 OD
  binding result: no binding
[3]
  OD 405 nm: 3.1 OD
[4]
  OD 405 nm: 1.4 OD
[5]
  OD 405 nm: 1.53 OD
[6]
  OD 405 nm: 0.03 OD
  binding result: no binding
[7]
  OD 405 nm: 0.021 OD
[8]
  OD 405 nm: 0.025 OD
  binding result: no binding
[9]
  OD 405 nm: 1.62 OD
[10]
  OD 405 nm: 1.4 OD
[11]
  binding result: no binding
[12]
  binding result: no binding
[13]
  binding result: no binding

B2: anti-HER3/HER4 antibody M-05-74 (antibody, V domains shown)
VH: QVQLQQSGAELAKPGASVKMSCKTSGYTLTDYWIHWVKQRPGQGLEWIGYINPYTGYTESNQKFKDKATLTADKSSNTAYIQLSSLTSEDSAVYYCARPYYYGDYWGQGTTLTVSS
VL: QIVLTQSPAIMSASPGERVTITCSASSSVSYMHWFQQKPGTSPKLLIYSTSNLASGVPARFSGSGSGTSYSLTISRMEAEDAATYYCQQRSSYPFTFGSGTKLEIK
notes: also called M-074; M-5-74
[14]
  binding result: no binding (tested: 1 µg/mL)
[15]
  binding result: no binding (tested: 1 µg/mL)
[16]
  t½ diss: 18 min

B3: Europium-labeled Heregulin-beta (PeproTech, Cat. #100-03) (ligand)
chain: SHLVKCAEKEKTFCVNGGECFMVKDLSNPSRYLCKCPNEFTGDRCQNYVMASFYKHLGIEFMEAE
modifications: also: europium label, position not given here
notes: bought fragment; also called HRG; Human Heregulin β-1 fragment (as provided from Preprotech)
[17]
  binding result: binds

B4: anti-HER3 antibody MOR09823 (described in WO2012/22814) (antibody, V domains shown)
VH: QVQLVESGGGLVQPGGSLRLSCAASGFTFSSYAMSWVRQAPGKGLEWVSVTGAVGRTYYPDSVKGRFTISRDNSKNTLYLQMNSLRAEDTAVYYCARWGDEGFDIWGQGTLVTVSS
VL: DIQMTQSPSSLSASVGDRVTITCRASQGISNWLAWYQQKPGKAPKLLIYGASSLQSGVPSRFSGSGSGTDFTLTISSLQPEDFAVYYCQQYSSFPTTFGQGTKVEIKR
[18]
  Kd: 300 pM

B5: anti-HER3 antibody M-17-12 (antibody, V domains shown)
VH: EVQLQQSGTVLARPGASVKMSCKASGYSFTSYWIHWVKQRPGQGLEWIGAIYPGNSDTTYNQKFKGKAKLTAVTSASTAYMELSSLTNEDSAVYYCARTGVWTSYYFDYWGQGTTLTVSS
VL: DIQMTQSPASLSASVGETVTITCRASENIYSNLAWYQQKQGKSPQLLVYAATNLADGVPSRFSGSGSGTQFSLRINSLQPEDFGSYYCQHFYGTPFTFGTGTKLEIK
notes: mouse hybridoma clone; VH and VL stated identical to those of M-17-02
[1]
  OD 405 nm: 0.022 OD
[2]
  OD 405 nm: 0.023 OD
  binding result: no binding
[3]
  OD 405 nm: 3.06 OD
[4]
  OD 405 nm: 1.66 OD
[5]
  OD 405 nm: 1.53 OD
[6]
  OD 405 nm: 0.051 OD
  binding result: no binding
[7]
  OD 405 nm: 0.022 OD
[8]
  OD 405 nm: 0.022 OD
  binding result: no binding
[9]
  OD 405 nm: 1.37 OD
[10]
  OD 405 nm: 1.31 OD
[19]
  binding result: no binding (tested: 1 µg/ml)
[20]
  binding result: no binding (tested: 1 µg/ml)
[21]
  binding result: no binding (tested: 1 µg/ml)
